Reference: patent US20220143213

Legend:
[1] = biological target: IgG present within human serum
[2] = biological target: IgG present within primate serum
[3] = biological target: human intravenous immunoglobulin (IVIG)
[4] = biological target: IgG present within mouse serum

| Protein | IgG cleavage, reducing SDS-PAGE with Coomassie stain [1] | IgG cleavage, reducing SDS-PAGE with Coomassie stain (Donors 1-5) [1] | IgG cleavage, reducing SDS-PAGE with Coomassie stain [2] | IVIG cleavage in vitro, reducing SDS-PAGE with Coomassie stain [3] | IgG cleavage, SDS-PAGE (IgG from dog serum) | IgG cleavage, reducing SDS-PAGE with Coomassie stain [4] | IgG cleavage, SDS-PAGE with Coomassie stain (heavy chain cleavage product ~31 kDa) [1] | IgG cleavage, SDS-PAGE with Coomassie stain (heavy chain cleavage product ~31 kDa) [2] |
| --- | --- | --- | --- | --- | --- | --- | --- | --- |
| recombinant IdeZ (NEB P0770S or Genscript) (protein) MKTIAYPNKPHSLSAGLLTAIAIFSLASSNITYADDYQRNATEAYAKEVPHQITSVWSKGVTPLTPEQFRYNNEDVIHAPYLAHQGWYDITKAFDGKDNLLCGAATAGNMLHWWFDQNKTEIEAYLSKHPEKQKIIFNNQELFDLKAAIDTKDSQTNSQLFNYFRDKAFPNLSARQLGVMPDLVLDMFINGYYLNVFKTQSTDVNRPYQDKDKRGGIFDAVFTRGDQTTLLTARHDLKNKGLNDISTIIKQELTEGRALALSHTYANVSISHVINLWGADFNAEGNLEAIYVTDSDANASIGMKKYFVGINAHGHVAISAKKIEGENIGAQVLGLFTLSSGKDIWQKLS | IgG present within serum was cleaved by IdeZ | IdeZ also cleaved IgG in serum samples from additional human patients (Donors 1-5) | IgG present within serum was cleaved by IdeZ | IdeZ cleaved human IVIG in vitro | IdeZ can cleave IgG from dog serum | IgG present within serum was cleaved by IdeZ | – | – |
| recombinant GST-IdeZ (N-terminally GST tagged IdeZ fusion) (protein) MKTIAYPNKPHSLSAGLLTAIAIFSLASSNITYADDYQRNATEAYAKEVPHQITSVWSKGVTPLTPEQFRYNNEDVIHAPYLAHQGWYDITKAFDGKDNLLCGAATAGNMLHWWFDQNKTEIEAYLSKHPEKQKIIFNNQELFDLKAAIDTKDSQTNSQLFNYFRDKAFPNLSARQLGVMPDLVLDMFINGYYLNVFKTQSTDVNRPYQDKDKRGGIFDAVFTRGDQTTLLTARHDLKNKGLNDISTIIKQELTEGRALALSHTYANVSISHVINLWGADFNAEGNLEAIYVTDSDANASIGMKKYFVGINAHGHVAISAKKIEGENIGAQVLGLFTLSSGKDIWQKLS | – | – | – | IdeZ cleaved human IVIG in vitro | – | – | GST-IdeZ cleaved IgG present within human and primate serum | GST-IdeZ cleaved IgG present within human and primate serum |
